T1: APBA2_1, Q99767
T1 sequence (Q99767 563-664, limits assumed, looked up): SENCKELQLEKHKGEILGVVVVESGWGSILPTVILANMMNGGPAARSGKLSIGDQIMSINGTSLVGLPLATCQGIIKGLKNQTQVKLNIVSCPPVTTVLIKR

T2: APBA2_2, Q99767
T2 sequence (Q99767 654-744, limits assumed, looked up): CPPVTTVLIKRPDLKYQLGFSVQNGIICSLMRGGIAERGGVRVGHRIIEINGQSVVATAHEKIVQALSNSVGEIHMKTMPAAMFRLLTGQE

T3: ARHGAP21, Q5T5U3
T3 sequence (Q5T5U3 45-169, limits assumed, looked up): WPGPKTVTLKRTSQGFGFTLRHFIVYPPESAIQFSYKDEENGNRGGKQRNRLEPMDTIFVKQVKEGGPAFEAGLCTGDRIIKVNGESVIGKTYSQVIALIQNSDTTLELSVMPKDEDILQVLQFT

T4: FRMPD1, Q5SYB0
T4 sequence (Q5SYB0 52-145, limits assumed, looked up): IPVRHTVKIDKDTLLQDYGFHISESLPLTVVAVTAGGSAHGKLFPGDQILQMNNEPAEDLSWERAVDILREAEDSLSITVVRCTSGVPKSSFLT

T5: GRIP1_3, Q9Y3R0
T5 sequence (Q9Y3R0 247-346, limits assumed, looked up): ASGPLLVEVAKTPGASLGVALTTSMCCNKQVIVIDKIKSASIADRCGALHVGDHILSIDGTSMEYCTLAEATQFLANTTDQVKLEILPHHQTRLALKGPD

T6: HTRA3, P83110
T6 sequence (P83110 354-453, limits assumed, looked up): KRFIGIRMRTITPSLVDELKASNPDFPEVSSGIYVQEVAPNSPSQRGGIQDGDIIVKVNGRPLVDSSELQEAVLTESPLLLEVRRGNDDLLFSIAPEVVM

T7: LNX2_3, Q8N448
T7 sequence (Q8N448 463-564, limits assumed, looked up): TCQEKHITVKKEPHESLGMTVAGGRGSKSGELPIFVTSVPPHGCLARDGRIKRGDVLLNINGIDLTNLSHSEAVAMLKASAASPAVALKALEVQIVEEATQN

T8: LRRC7, Q96NW7
T8 sequence (Q96NW7 1440-1537, limits assumed, looked up): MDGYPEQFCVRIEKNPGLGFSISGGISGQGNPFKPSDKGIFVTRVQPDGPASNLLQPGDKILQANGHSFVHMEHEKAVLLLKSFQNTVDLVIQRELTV

T9: NHERF3_3, Q5T2W1
T9 sequence (Q5T2W1 238-333, limits assumed, looked up): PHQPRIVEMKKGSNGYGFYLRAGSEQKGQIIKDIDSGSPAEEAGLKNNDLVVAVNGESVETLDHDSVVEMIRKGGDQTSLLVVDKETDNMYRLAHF

T10: NHERF3_4, Q5T2W1
T10 sequence (Q5T2W1 373-468, limits assumed, looked up): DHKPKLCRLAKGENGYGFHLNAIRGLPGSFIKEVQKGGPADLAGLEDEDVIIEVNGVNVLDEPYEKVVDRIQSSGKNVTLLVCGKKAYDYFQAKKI

T11: PDZD2_2, O15018
T11 sequence (O15018 329-429, limits assumed, looked up): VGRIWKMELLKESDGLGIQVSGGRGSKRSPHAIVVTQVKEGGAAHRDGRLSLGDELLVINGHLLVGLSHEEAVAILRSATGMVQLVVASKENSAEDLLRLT

T12: PDZD7_3, Q9H5P4
T12 sequence (Q9H5P4 857-944, limits assumed, looked up): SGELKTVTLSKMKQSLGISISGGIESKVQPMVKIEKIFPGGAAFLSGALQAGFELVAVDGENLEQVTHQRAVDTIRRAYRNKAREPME

T13: TJP3_3, O95049
T13 sequence (O95049 375-456, limits assumed, looked up): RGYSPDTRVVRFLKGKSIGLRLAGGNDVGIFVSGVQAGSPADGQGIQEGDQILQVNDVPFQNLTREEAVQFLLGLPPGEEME

B1: CLDN8, P56748 (peptide)
chain: PSVYSRSQYV
B2: EXOC4, Q96A65 (peptide)
chain: ATKDKKITTV
B3: FKBP4, Q02790 (peptide)
chain: GSQSQVETEA

The binders below were run against T1, APBA2_1, Q99767 (assay: holdup assay). Settings: plain residues with an end cap or a label only (N-terminal biotin on a linker: ado-ado).
Set-up: key: below the threshold = too weak to quantify, mostly under pKd 3.1 to 4

pKd	Binder
below the threshold	B1
below the threshold	B2
below the threshold	B3

Each binder was assayed against T2, APBA2_2, Q99767 (assay: holdup assay). Settings: plain residues with an end cap or a label only (N-terminal biotin on a linker: ado-ado).
Set-up: key: below the threshold = too weak to quantify, mostly under pKd 3.1 to 4

pKd	Binder
below the threshold	B1
below the threshold	B2
below the threshold	B3

What follows are binders tested against T3, ARHGAP21, Q5T5U3 (assay: holdup assay). Settings: plain residues with an end cap or a label only (N-terminal biotin on a linker: ado-ado).
Set-up: key: below the threshold = too weak to quantify, mostly under pKd 3.1 to 4

pKd	Binder
4.12	B1
4.09	B2
below the threshold	B3

What follows are binders tested against DLG1_1, Q12959 (assay: holdup assay). Settings: plain residues with an end cap or a label only (N-terminal biotin on a linker: ado-ado).
Set-up: key: below the threshold = too weak to quantify, mostly under pKd 3.1 to 4

pKd	Binder
below the threshold	B1
5.05	B2
below the threshold	B3

The binders below were run against DLG2_3, Q15700 (assay: holdup assay). Settings: plain residues with an end cap or a label only (N-terminal biotin on a linker: ado-ado).
Set-up: key: below the threshold = too weak to quantify, mostly under pKd 3.1 to 4

pKd	Binder
below the threshold	B1
4.58	B2
3.82	B3

The binders below were run against T4, FRMPD1, Q5SYB0 (assay: holdup assay). Settings: plain residues with an end cap or a label only (N-terminal biotin on a linker: ado-ado).
Set-up: key: below the threshold = too weak to quantify, mostly under pKd 3.1 to 4

pKd	Binder
below the threshold	B1
below the threshold	B2
below the threshold	B3

These binders were tested against FRMPD3, Q5JV73 (assay: holdup assay). Settings: plain residues with an end cap or a label only (N-terminal biotin on a linker: ado-ado).
Chain of FRMPD3, Q5JV73 (Q5JV73 12-100): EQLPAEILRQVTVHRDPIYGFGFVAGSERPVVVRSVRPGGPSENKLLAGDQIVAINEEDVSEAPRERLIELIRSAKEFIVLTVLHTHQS
Set-up: key: below the threshold = too weak to quantify, mostly under pKd 3.1 to 4

pKd	Binder
below the threshold	B1
below the threshold	B2
below the threshold	B3

What follows are binders tested against GOPC, Q9HD26 (assay: holdup assay). Settings: plain residues with an end cap or a label only (N-terminal biotin on a linker: ado-ado).
Set-up: key: below the threshold = too weak to quantify, mostly under pKd 3.1 to 4

pKd	Binder
below the threshold	B1
3.87	B2
below the threshold	B3

These binders were tested against T5, GRIP1_3, Q9Y3R0 (assay: holdup assay). Settings: plain residues with an end cap or a label only (N-terminal biotin on a linker: ado-ado).
Set-up: key: below the threshold = too weak to quantify, mostly under pKd 3.1 to 4

pKd	Binder
below the threshold	B1
below the threshold	B2
below the threshold	B3

Each binder was assayed against GRIP2_7, Q9C0E4 (assay: holdup assay). Settings: plain residues with an end cap or a label only (N-terminal biotin on a linker: ado-ado).
Chain of GRIP2_7, Q9C0E4 (Q9C0E4 934-1023): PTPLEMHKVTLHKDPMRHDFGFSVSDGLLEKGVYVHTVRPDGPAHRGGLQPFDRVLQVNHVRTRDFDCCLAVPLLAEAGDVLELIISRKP
Set-up: key: below the threshold = too weak to quantify, mostly under pKd 3.1 to 4

pKd	Binder
3.51	B1
3.52	B2
below the threshold	B3

The binders below were run against T6, HTRA3, P83110 (assay: holdup assay). Settings: plain residues with an end cap or a label only (N-terminal biotin on a linker: ado-ado).
Set-up: key: below the threshold = too weak to quantify, mostly under pKd 3.1 to 4

pKd	Binder
4.72	B1
below the threshold	B2
below the threshold	B3

What follows are binders tested against IL16_3, Q14005 (assay: holdup assay). Settings: plain residues with an end cap or a label only (N-terminal biotin on a linker: ado-ado).
Chain of IL16_3, Q14005 (Q14005 1107-1207): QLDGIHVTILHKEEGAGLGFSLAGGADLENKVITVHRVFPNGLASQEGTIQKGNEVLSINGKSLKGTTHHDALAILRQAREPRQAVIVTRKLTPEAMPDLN
Set-up: key: below the threshold = too weak to quantify, mostly under pKd 3.1 to 4

pKd	Binder
below the threshold	B1
below the threshold	B2
below the threshold	B3

Each binder was assayed against Inadl_3, Q8NI35 (assay: holdup assay). Settings: plain residues with an end cap or a label only (N-terminal biotin on a linker: ado-ado).
Chain of Inadl_3, Q8NI35 (Q8NI35 359-469): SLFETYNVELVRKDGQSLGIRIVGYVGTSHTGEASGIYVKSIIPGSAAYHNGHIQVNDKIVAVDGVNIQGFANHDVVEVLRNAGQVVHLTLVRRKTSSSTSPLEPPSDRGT
Set-up: key: below the threshold = too weak to quantify, mostly under pKd 3.1 to 4

pKd	Binder
below the threshold	B1
below the threshold	B2
below the threshold	B3

The binders below were run against Inadl_5, Q8NI35 (assay: holdup assay). Settings: plain residues with an end cap or a label only (N-terminal biotin on a linker: ado-ado).
Chain of Inadl_5, Q8NI35 (Q8NI35 673-780): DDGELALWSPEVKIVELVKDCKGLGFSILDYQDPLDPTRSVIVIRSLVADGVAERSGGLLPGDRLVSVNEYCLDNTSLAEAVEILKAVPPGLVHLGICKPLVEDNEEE
Set-up: key: below the threshold = too weak to quantify, mostly under pKd 3.1 to 4

pKd	Binder
4.31	B1
below the threshold	B2
below the threshold	B3

These binders were tested against Inadl_9, Q8NI35 (assay: holdup assay). Settings: plain residues with an end cap or a label only (N-terminal biotin on a linker: ado-ado).
Chain of Inadl_9, Q8NI35 (Q8NI35 1530-1615): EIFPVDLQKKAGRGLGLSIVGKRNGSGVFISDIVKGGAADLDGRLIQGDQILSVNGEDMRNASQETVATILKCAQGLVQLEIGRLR
Set-up: key: below the threshold = too weak to quantify, mostly under pKd 3.1 to 4

pKd	Binder
4.36	B1
3.63	B2
below the threshold	B3

The binders below were run against LNX1_1, Q8TBB1 (assay: holdup assay). Settings: plain residues with an end cap or a label only (N-terminal biotin on a linker: ado-ado).
Chain of LNX1_1, Q8TBB1 (Q8TBB1 261-371): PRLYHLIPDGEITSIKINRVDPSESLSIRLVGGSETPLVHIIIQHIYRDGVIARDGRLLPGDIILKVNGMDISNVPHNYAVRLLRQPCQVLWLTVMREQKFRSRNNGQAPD
Set-up: key: below the threshold = too weak to quantify, mostly under pKd 3.1 to 4

pKd	Binder
below the threshold	B1
3.69	B2
below the threshold	B3

The binders below were run against T7, LNX2_3, Q8N448 (assay: holdup assay). Settings: plain residues with an end cap or a label only (N-terminal biotin on a linker: ado-ado).
Set-up: key: below the threshold = too weak to quantify, mostly under pKd 3.1 to 4

pKd	Binder
below the threshold	B1
3.48	B2
below the threshold	B3

The binders below were run against T8, LRRC7, Q96NW7 (assay: holdup assay). Settings: plain residues with an end cap or a label only (N-terminal biotin on a linker: ado-ado).
Set-up: key: below the threshold = too weak to quantify, mostly under pKd 3.1 to 4

pKd	Binder
below the threshold	B1
3.48	B2
below the threshold	B3

These binders were tested against MAST1, Q9Y2H9 (assay: holdup assay). Settings: plain residues with an end cap or a label only (N-terminal biotin on a linker: ado-ado).
Chain of MAST1, Q9Y2H9 (Q9Y2H9 962-1065): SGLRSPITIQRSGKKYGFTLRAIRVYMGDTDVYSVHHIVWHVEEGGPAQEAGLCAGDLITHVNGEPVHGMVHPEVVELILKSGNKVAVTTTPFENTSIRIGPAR
Set-up: key: below the threshold = too weak to quantify, mostly under pKd 3.1 to 4

pKd	Binder
3.95	B1
below the threshold	B2
3.96	B3

Each binder was assayed against T9, NHERF3_3, Q5T2W1 (assay: holdup assay). Settings: plain residues with an end cap or a label only (N-terminal biotin on a linker: ado-ado).
Set-up: key: below the threshold = too weak to quantify, mostly under pKd 3.1 to 4

pKd	Binder
below the threshold	B1
below the threshold	B2
below the threshold	B3

Each binder was assayed against T10, NHERF3_4, Q5T2W1 (assay: holdup assay). Settings: plain residues with an end cap or a label only (N-terminal biotin on a linker: ado-ado).
Set-up: key: below the threshold = too weak to quantify, mostly under pKd 3.1 to 4

pKd	Binder
4.13	B1
below the threshold	B2
3.73	B3

The binders below were run against T11, PDZD2_2, O15018 (assay: holdup assay). Settings: plain residues with an end cap or a label only (N-terminal biotin on a linker: ado-ado).
Set-up: key: below the threshold = too weak to quantify, mostly under pKd 3.1 to 4

pKd	Binder
4.55	B1
3.88	B2
below the threshold	B3

Each binder was assayed against T12, PDZD7_3, Q9H5P4 (assay: holdup assay). Settings: plain residues with an end cap or a label only (N-terminal biotin on a linker: ado-ado).
Set-up: key: below the threshold = too weak to quantify, mostly under pKd 3.1 to 4

pKd	Binder
below the threshold	B1
5.64	B2
below the threshold	B3

Each binder was assayed against TJP1_3, Q07157 (assay: holdup assay). Settings: plain residues with an end cap or a label only (N-terminal biotin on a linker: ado-ado).
Chain of TJP1_3, Q07157 (Q07157 416-512): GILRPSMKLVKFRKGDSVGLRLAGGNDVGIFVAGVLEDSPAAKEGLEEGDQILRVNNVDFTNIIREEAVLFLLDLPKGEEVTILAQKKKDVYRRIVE
Set-up: key: below the threshold = too weak to quantify, mostly under pKd 3.1 to 4

pKd	Binder
below the threshold	B1
below the threshold	B2
below the threshold	B3

Each binder was assayed against T13, TJP3_3, O95049 (assay: holdup assay). Settings: plain residues with an end cap or a label only (N-terminal biotin on a linker: ado-ado).
Set-up: key: below the threshold = too weak to quantify, mostly under pKd 3.1 to 4

pKd	Binder
3.82	B1
below the threshold	B2
below the threshold	B3

Reference: article PMC9482650, “Quantitative fragmentomics allow affinity mapping of interactomes” (Nature Communications, 2022)
